{"source": "patent US20220347267A1", "about": "“METHODS TO IMPROVE PATIENT RESPONSE TO IMMUNE CHECKPOINT INHIBITORS AND FUNCTIONAL TESTS TO PREDICT RESPONSE” (Biomarker Strategies, LLC, priority 2019, published 2022)", "molecules": {"B1": {"name": "IFNγ: human IFNγ, modulator (10 ng/ml; Sigma Aldrich) (protein, UniProt P01579 24-161, looked up)", "Interferon gamma": "QDPYVKEAENLKKYFNAGHSDVADNGTLFLGILKNWKEESDRKIMQSQIVSFYFKLFKNFKDDQSIQKSVETIKEDMNVKFFNSNKKKRDDFEKLTNYSVTDLNVQRKAIHELIQVMAELSPAAKTGKRKRSQMLFRG"}}, "format_in_all_cases": "cell-based, human", "key": {"[1]": {"tested_on": "SKMES1 cells", "experiment": "PD-L1 flow cytometry, IFNγ modulation", "procedure": "(§1) Samples (150 uL per tube) were first incubated with a blocking reagent at 1:20 for 15 min at room temperature. Alexa 488-conjugated PD-L1 antibody (CST cat #25048, Lot #2) and Alexa 488-conjugated isotype antibody (CST cat #2975, Lot #16) were added to experimental samples and isotype control samples, respectively, at a manufacturer recommended dilution of 1:50 and the samples were incubated for 30 min at room temperature. Other fluorophore-conjugates and PD-L1 antibodies, including those targeting different epitopes, can be readily used. Additionally, antibodies detecting other biomarkers with appropriate processing (e.g. permeabilization of cells) to predict response (e.g. p-STAT-1) can be used. Following the incubation with an antibody, 1 mL of 2% FBS in PBS was added to each tube to dilute the antibody. Samples were then centrifuged at 200 rcf for 5 min. Supernatant was carefully aspirated and 200 uL of 10% neutral buffered formalin (NBF) was added. Samples were then fixed for 10 min at room temperature. NBF was diluted with 1 mL of 2% FBS in PBS and the samples were centrifuged at 200 rcf for 5 min. Supernatant was aspirated and the cells were resuspended in 0.5 mL of 2% FBS in PBS for flow cytometric analysis. In this experiment, 10% NBF was used to fix cells, but other fixatives, for example, 4% paraformaldehyde can be used.\n(§2) Flow cytometry was performed using BDTM LSR II cytometer and BD FACSDiva™ data acquisition software. Any commercially available flow cytometry analysis software can be used, such as FlowJo (BD) and FCS Express (De Novo Software). Additionally, other flow cytometry instruments can be readily used. A total of 20,000 events were recorded for each sample. A Scatter gate was first applied, and a singlet gate was then applied on the scatter population to exclude doublet population. A 488 nm blue laser and a 530 nm detector were used to capture PD-LL signal. Any signal above the isotype control signal of the singlet population was considered PD-L1+(see FIG. 33). Though it was excluded from this experiment, cell viability can be assessed, and dead cells excluded from analysis, using stains such as Live/Dead™ Fixable Dead Cell Stain (Thermo) for fixed cells, or either 7-AAD (7-Aminoactinomycin D) or Propidium Iodide for unfixed cells.\n(§3) A percent change in PD-L1+ events between Untreated (non-modulated; vehicle control) and Treated (modulated with IFNγ) samples was calculated for each of the four cell lines tested (Table 2). […] A percent change in PD-L1 signal between Untreated and Treated samples was calculated for each of the four cell lines tested. […] The mean PD-L1 signal was used to calculate the percent change, however, median (as shown in FIGS. 34A-34H), geometric mean, mode or any other averaging method can also be used. To assess the difference in PD-L1 expression level or number of PD-L1+ events between Treated and Untreated samples, either a percent change or fold change can be calculated. Differences in PD-L1 expression level can also be assessed between a control sample with a known PD-L1 level and a clinical sample with an unknown PD-L1 level. To do so, the assay result of modulated and unmodulated clinical samples should be normalized to that of a control sample. A percent change or fold change between modulated and unmodulated samples can then be calculated using the normalized values. Baseline PD-L1 levels, as well as changes to PD-L1 upon modulation, can be used to predict response to therapy. As mentioned in the Methods section above, the antibody against PD-L1 used in this experiment targets extracellular portion of the PD-L1 molecule and as such, permeabilization was not performed. Antibodies such as those that target other PD-L1 domains would yield different PD-L1 expression patterns depending on the form(s) of PD-L1 present in the cell lines tested. Flow cytometry cannot detect PD-L1 molecules that are already secreted and not bound to other cell surfaces proteins. […]"}, "[2]": {"tested_on": "H460 cells", "experiment": "PD-L1 flow cytometry, IFNγ modulation", "procedure": "as §1, §2, §3"}, "[3]": {"tested_on": "H1299 cells", "experiment": "PD-L1 flow cytometry, IFNγ modulation", "procedure": "as §1, §2, §3"}, "[4]": {"tested_on": "H1650 cells", "experiment": "PD-L1 flow cytometry, IFNγ modulation", "procedure": "as §1, §2, §3"}, "[5]": {"tested_on": "H460 cells", "experiment": "PD-L1 mRNA one step RT-qPCR, IFNγ treatment", "conditions": "10 ng/mL IFNγ for 24h, normalized by GAPDH", "procedure": "(§4) Additionally, the presence, abundance and ratio of different PD-L1 mRNA forms can be used to predict response. As way of example, PD-L1 mRNA were measured using primers amplifying within exon 3-4 (extracellular region of the transcribed protein that interacts with PD1). Other amplicons detecting the same or other forms can be used readily. For example, amplicons corresponding to the transmembrane and cytoplasmic tail to confirm full length plasma membrane bound protein is transcribed, or regions overlapping with either PD1 or anti-PD-L1 binding sites. Five cell lines (H460, H1299, H1650, H2126 and SKMES1) were treated with vehicle or 10 ng/mL IFNγ for 24h. More complex sample types, including cells isolated from solid tumors from preclinical and clinical cancers be used. Other time points, including those as early as 1h for IRF or 4h for PD-L1, can be readily used. RNA was isolated from the cells using an NEB kit (Cat #T2010) per the manufacturer's instructions. Isolated RNA was estimated using a NanoDrop […] and checked for its quality by checking the 260/280 ratio. RNA concentration was brought to 40 ng/uL in all the samples to take equal quantity for further steps of RT and real time PCR. One step RT-qPCR was performed using a Power SYBR Green RNA to Ct One step kit (Cat #4931198) as per the manufacturer's instructions. A 200 ng RNA template was taken for total 20 uL reaction per well in 96 well PCR microplate for Roche 480 Light cycler. The following primer pairs (Sigma) were used for PD-L1 and GAPDH and were used at a concentration in the reaction mixture of 400 nM:\n(§5) A Roche 480 Light cycler was used for performing the one step real time PCR. Data was analyzed using 2^-ΔΔCt method normalized by GAPDH for relative levels. Alternative housekeeper genes may be readily used."}, "[6]": {"tested_on": "H1299 cells", "experiment": "PD-L1 mRNA one step RT-qPCR, IFNγ treatment", "conditions": "10 ng/mL IFNγ for 24h, 2^-ΔΔCt normalized by GAPDH", "procedure": "as §4, §5"}, "[7]": {"tested_on": "H1650 cells", "experiment": "PD-L1 mRNA one step RT-qPCR, IFNγ treatment", "conditions": "10 ng/mL IFNγ for 24h, 2^-ΔΔCt normalized by GAPDH", "procedure": "as §4, §5"}, "[8]": {"tested_on": "H2126 cells", "experiment": "PD-L1 mRNA one step RT-qPCR, IFNγ treatment", "conditions": "10 ng/mL IFNγ for 24h, normalized by GAPDH", "procedure": "as §4, §5"}, "[9]": {"conditions": "modulated with IFNγ, 20,000 events recorded"}}, "data": [{"molecule": "B1", "values": [{"measurement": "Mean PD-L1 signal in Singlets, % change (Treated - Untreated)/Untreated", "setting": "[1]; IFNγ treated vs untreated", "value": 22, "unit": "%"}, {"measurement": "Mean PD-L1 signal in Singlets, Fold change (Treated/Untreated)", "setting": "[1]; IFNγ treated vs untreated", "value": 1.22}, {"measurement": "Number of Events in PD-L1 + population, % change (Treated - Untreated)/Untreated", "setting": "[1]; IFNγ treated vs untreated", "value": 3, "unit": "%"}, {"measurement": "Number of Events in PD-L1 + population, Fold change (Treated/Untreated)", "setting": "[1]; IFNγ treated vs untreated", "value": 1.03}, {"measurement": "Mean PD-L1 signal in Singlets, Treated", "setting": "[1]; modulated with IFNγ", "value": 4228}, {"measurement": "Number of Events in PD-L1 + population, Treated", "setting": "[1]; [9]", "value": 1772}, {"measurement": "Mean PD-L1 signal in Singlets, % change (Treated - Untreated)/Untreated", "setting": "[2]; IFNγ treated vs untreated", "value": 20, "unit": "%"}, {"measurement": "Mean PD-L1 signal in Singlets, Fold change (Treated/Untreated)", "setting": "[2]; IFNγ treated vs untreated", "value": 1.20}, {"measurement": "Number of Events in PD-L1 + population, % change (Treated - Untreated)/Untreated", "setting": "[2]; IFNγ treated vs untreated", "value": 4, "unit": "%"}, {"measurement": "Number of Events in PD-L1 + population, Fold change (Treated/Untreated)", "setting": "[2]; IFNγ treated vs untreated", "value": 1.04}, {"measurement": "Mean PD-L1 signal in Singlets, Treated", "setting": "[2]; modulated with IFNγ", "value": 1646}, {"measurement": "Number of Events in PD-L1 + population, Treated", "setting": "[2]; [9]", "value": 13382}, {"measurement": "Mean PD-L1 signal in Singlets, % change (Treated - Untreated)/Untreated", "setting": "[3]; IFNγ treated vs untreated", "value": 24, "unit": "%"}, {"measurement": "Mean PD-L1 signal in Singlets, Fold change (Treated/Untreated)", "setting": "[3]; IFNγ treated vs untreated", "value": 1.24}, {"measurement": "Number of Events in PD-L1 + population, % change (Treated - Untreated)/Untreated", "setting": "[3]; IFNγ treated vs untreated", "value": 71, "unit": "%"}, {"measurement": "Number of Events in PD-L1 + population, Fold change (Treated/Untreated)", "setting": "[3]; IFNγ treated vs untreated", "value": 1.71}, {"measurement": "Mean PD-L1 signal in Singlets, Treated", "setting": "[3]; modulated with IFNγ", "value": 538}, {"measurement": "Number of Events in PD-L1 + population, Treated", "setting": "[3]; [9]", "value": 3462}, {"measurement": "Mean PD-L1 signal in Singlets, % change (Treated - Untreated)/Untreated", "setting": "[4]; IFNγ treated vs untreated", "value": 63, "unit": "%"}, {"measurement": "Mean PD-L1 signal in Singlets, Fold change (Treated/Untreated)", "setting": "[4]; IFNγ treated vs untreated", "value": 1.63}, {"measurement": "Number of Events in PD-L1 + population, % change (Treated - Untreated)/Untreated", "setting": "[4]; IFNγ treated vs untreated", "value": 266, "unit": "%"}, {"measurement": "Number of Events in PD-L1 + population, Fold change (Treated/Untreated)", "setting": "[4]; IFNγ treated vs untreated", "value": 3.66}, {"measurement": "Mean PD-L1 signal in Singlets, Treated", "setting": "[4]; modulated with IFNγ", "value": 714}, {"measurement": "Number of Events in PD-L1 + population, Treated", "setting": "[4]; [9]", "value": 5883}, {"measurement": "change of PD-L1 mRNA upon IFNγ exposure", "setting": "[5]", "value": "decrease"}, {"measurement": "relative increase of PD-L1 mRNA upon IFNγ exposure", "setting": "[6]", "value": 1.7, "unit": "fold"}, {"measurement": "relative increase of PD-L1 mRNA upon IFNγ exposure", "setting": "[7]", "value": 2.2, "unit": "fold"}, {"measurement": "change of PD-L1 mRNA upon IFNγ exposure", "setting": "[8]", "value": "decrease"}]}]}
